In patent US20150239980A1 (NEOTOPE BOSCIENCES, published 2015):
Changes are numbered by the printed parent chain.

T1: recombinant hMCAM-His (human, UniProt P43121 24-559)
T1 construct: not shown: His tag
T1 chain: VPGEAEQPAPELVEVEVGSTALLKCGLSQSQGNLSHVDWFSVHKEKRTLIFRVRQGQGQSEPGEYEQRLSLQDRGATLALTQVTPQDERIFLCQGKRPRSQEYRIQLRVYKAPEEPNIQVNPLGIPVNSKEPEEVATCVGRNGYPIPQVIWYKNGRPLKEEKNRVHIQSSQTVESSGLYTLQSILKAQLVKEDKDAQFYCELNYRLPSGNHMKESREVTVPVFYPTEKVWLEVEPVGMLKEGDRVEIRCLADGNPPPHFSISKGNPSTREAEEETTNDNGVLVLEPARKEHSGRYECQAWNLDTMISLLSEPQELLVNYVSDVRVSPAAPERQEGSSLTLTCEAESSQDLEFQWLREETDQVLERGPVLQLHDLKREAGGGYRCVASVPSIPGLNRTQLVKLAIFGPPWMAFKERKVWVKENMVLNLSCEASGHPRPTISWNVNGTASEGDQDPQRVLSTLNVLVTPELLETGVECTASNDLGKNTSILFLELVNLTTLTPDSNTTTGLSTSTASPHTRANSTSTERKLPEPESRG

T2: human MCAM (melanoma cell adhesion molecule) expressed on transfected CHO cells (human, UniProt P43121 24-646)
T2 construct: also called hMCAM; CD146
T2 chain: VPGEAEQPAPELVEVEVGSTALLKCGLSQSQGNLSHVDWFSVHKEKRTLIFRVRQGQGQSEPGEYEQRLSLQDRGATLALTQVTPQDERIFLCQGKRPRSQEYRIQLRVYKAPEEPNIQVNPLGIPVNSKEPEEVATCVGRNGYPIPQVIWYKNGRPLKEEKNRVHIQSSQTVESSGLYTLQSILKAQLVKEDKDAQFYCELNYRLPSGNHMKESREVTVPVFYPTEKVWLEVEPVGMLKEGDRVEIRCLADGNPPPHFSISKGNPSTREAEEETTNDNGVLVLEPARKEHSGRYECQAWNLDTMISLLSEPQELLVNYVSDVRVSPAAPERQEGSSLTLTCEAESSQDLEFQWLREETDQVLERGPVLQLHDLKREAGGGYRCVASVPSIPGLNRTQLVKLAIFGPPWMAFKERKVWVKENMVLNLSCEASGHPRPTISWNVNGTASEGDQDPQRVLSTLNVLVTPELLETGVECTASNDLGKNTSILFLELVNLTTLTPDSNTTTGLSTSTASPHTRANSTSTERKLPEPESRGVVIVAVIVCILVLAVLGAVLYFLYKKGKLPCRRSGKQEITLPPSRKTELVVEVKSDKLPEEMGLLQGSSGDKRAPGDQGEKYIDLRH

B1: h2107_VH1 + h2107_VL2 (antibody, human IgG1, V domains shown)
VH: QVTLKESGPVLVKPTETLTLTCTVSGFSLTSNGVSWVRQPPGKALEWIAAISSGGSTYYNSAFKSRLTISRDTSKSQVVLTMTNMDPVDTATYYCARHRPFYFDYWGQGTLVTVSS
VL: DIQMTQSPSSLSASVGDRVTITCKGSQNIYKSLAWFQLKPGKVPKLLIYDANSLQTGIPSRFSGSGSGTDFTLTISSLQPEDVATYYCQQYYSGYTFGGGTKVEIK
notes: also called VH1VL2
B2: h2107_VH2 + h2107_VL2 (antibody, human IgG1, V domains shown)
VH: B1 VH with T68S
VL: B1 VL
notes: also called h2107VH2VL2; VH2VL2

What was measured:
recombinant hMCAM-His [1] = target: T1, recombinant hMCAM-His; assay: ForteBio Octet Red, hMCAM-His analyte; Expt. #1; vs rodent 2107
How it was run: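 Using a 1:1 fitting model, affinities were calculated from sensorgrams of hMCAMHis analyte at several concentrations binding Fc-captured humanized antibody.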

recombinant hMCAM-His [2] = target: T1, recombinant hMCAM-His; assay: ForteBio Octet Red, hMCAM-His analyte; Expt. #2; vs rodent 2107
Description: (§1) The affinities were measured using the ForteBio Octet Red. Anti-human Fc sensors were used to capture the humanized antibodies, and several concentrations of hMCAMHis analyte were used to determine the affinity using a 1:1 fitting model.

recombinant hMCAM-His [3] = target: T1, recombinant hMCAM-His; assay: summary of ForteBio and competitive ELISA on hMCAM-His; vs rodent 2107
Description: (§2) ELISA plates were coated with recombinant hMCAM-His, and blocked with casein buffer to prevent non-specific binding. Biotinylated rodent or chimeric antibody was added at a subsaturating concentration, in the presence or absence of 3× increasing concentrations of unlabeled competitor (humanized antibody, rodent, or chimeric). After washing to remove unbound antibody, streptavidin HRP was added to allow detection of the biotinylated antibody. The ELISA was developed with TMB substrate and the OD450 was measured. The IC50 of the unlabeled competitor was determined using the GraphPad Prism5 software.
as §1

recombinant hMCAM-His [4] = target: T1, recombinant hMCAM-His; assay: ForteBio Octet Red, hMCAM-His analyte; Forte column 1; vs rodent 2107
Description: as §1

recombinant hMCAM-His [5] = target: T1, recombinant hMCAM-His; assay: ForteBio Octet Red, hMCAM-His analyte; Forte column 2; vs rodent 2107
Description: as §1

[6] = target: T2, human MCAM (melanoma cell adhesion …); assay: laminin/FACS on hMCAM CHO cells, competitor laminin 411; Expt#1; vs rodent 2107
Description: (§3) Following incubation for 30-45 minutes, the cells were washed and anti-laminin conjugated to AF650 (NovusBio) was added to detect the bound laminin. The cells were run on a flow cytometer to measure the laminin binding signal.

[7] = target: T2, human MCAM (melanoma cell adhesion …); assay: summary of laminin blocking assay on hMCAM CHO cells, competitor laminin 411; vs rodent 2107
Description: as §3

recombinant hMCAM-His [8] = target: T1, recombinant hMCAM-His; assay: competitive ELISA on hMCAM-His, competitor biotinylated rodent or chimeric 2107; vs rodent 2107
Description: as §2

[9] = target: T2, human MCAM (melanoma cell adhesion …); assay: laminin/FACS on hMCAM CHO cells, competitor laminin 411; Expt#2; reference row with 1.0 is chimeric 2107
Description: as §3

recombinant hMCAM-His [10] = target: T1, recombinant hMCAM-His; assay: competitive ELISA on hMCAM-His, competitor biotinylated rodent or chimeric 2107; Expt. #1; vs rodent 2107
How it was run: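 Plates coated with recombinant hMCAM-His and casein-blocked; biotinylated rodent or chimeric antibody at subsaturating level competed by 3× serial concentrations of unlabeled humanized, rodent or chimeric antibody. Bound biotinylated antibody detected with streptavidin-HRP/TMB at OD450; competitor IC50 fitted.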

recombinant hMCAM-His [11] = target: T1, recombinant hMCAM-His; assay: competitive ELISA on hMCAM-His, competitor biotinylated rodent or chimeric 2107; Expt. #2; vs rodent 2107
Description: as §2

Row | Binder | fold over rodent (Forte affinity) (recombinant hMCAM-His [1]) | fold over rodent (Forte affinity) (recombinant hMCAM-His [2]) | fold reduction in affinity compared to the rodent (recombinant hMCAM-His [3]) | fold over rodent (Forte affinity) (recombinant hMCAM-His [4]) | fold over rodent (Forte affinity) (recombinant hMCAM-His [5]) | fold over rodent (blocking, laminin/FACS) [6] | fold reduction in potency compared to the rodent [7] | fold over rodent (competitive ELISA) (recombinant hMCAM-His [8]) | fold over rodent (blocking, laminin/FACS) [9] | fold over rodent (competitive ELISA) (recombinant hMCAM-His [10]) | fold over rodent (competitive ELISA) (recombinant hMCAM-His [11])
1 | B1 | 2.37 fold | 3.4 fold | < 3 fold | 3 fold | 2.8 fold | 1.9 fold | < 3 fold | 1.4 fold | 1.4 fold | 1.29 fold | 1.32 fold
2 | B2 | 2.54 fold | 3.58 fold | < 3 fold | 2.7 fold | 2.9 fold | 1.4 fold | < 3 fold | 1.3 fold | 1.5 fold | 1.32 fold | 1.48 fold
